Data published in PMC8631942.
“And” between values parts separate entries of the source, which are not always exact repeats. Equal entries are not always repeated. One block for each substance: values may come before it.

Key:
[1] = target: His10-PD-1^ICD PD-1^FY, pre-phosphorylated (human) (UniProt Q15116); assay: SPR; OpenSPR (Nicoya); pre-phosphorylated His10-tagged PD-1 or BTLA ICD immobilised on a Ni sensor chip (about 1500 RU); SH2 injected at 20-1000 nM, 20 μl/min; 20 mM HEPES, 150 mM NaCl, 5 mM imidazole, 0.05% Tween-20, 10% glycerol, pH 7.5; equilibrium analysis (Evaluate EC50, TraceDrawer)
[2] = target: His10-PD-1^ICD PD-1^YF, pre-phosphorylated (human) (UniProt Q15116); assay: as above
[3] = target: pre-phosphorylated His10-PD-1 ICD (aa 194-288) PD-1^YF (human) (UniProt Q15116); assay: SPR; OpenSPR (Nicoya); pre-phosphorylated His10-tagged PD-1 ICD or BTLA ICD tyrosine mutant immobilised on a Ni sensor chip (about 1500 RU); SH2 injected at 20-1000 nM, 20 ul/min; 20 mM HEPES, 150 mM NaCl, 5 mM imidazole, 0.05% Tween-20, 10% glycerol, pH 7.5; equilibrium fit ('Evaluate EC50', TraceDrawer); three independent repeats on different chips
[4] = target: pre-phosphorylated His10-BTLA ICD (aa 190-289) triple-tyrosine-mutant FFYF (human) (UniProt Q7Z6A9); assay: as above
[5] = target: pre-phosphorylated His10-PD-1 ICD (aa 194-288) PD-1^FY (human) (UniProt Q15116); assay: as above
[6] = target: His10-BTLA^ICD BTLA^FFYF, pre-phosphorylated (human) (UniProt Q7Z6A9); assay: SPR; OpenSPR (Nicoya); pre-phosphorylated His10-tagged PD-1 or BTLA ICD immobilised on a Ni sensor chip (about 1500 RU); SH2 injected at 20-1000 nM, 20 μl/min; 20 mM HEPES, 150 mM NaCl, 5 mM imidazole, 0.05% Tween-20, 10% glycerol, pH 7.5; equilibrium analysis (Evaluate EC50, TraceDrawer)
[7] = target: pre-phosphorylated His10-BTLA ICD (aa 190-289) triple-tyrosine-mutant FFFY (human) (UniProt Q7Z6A9); assay: SPR; OpenSPR (Nicoya); pre-phosphorylated His10-tagged PD-1 ICD or BTLA ICD tyrosine mutant immobilised on a Ni sensor chip (about 1500 RU); SH2 injected at 20-1000 nM, 20 ul/min; 20 mM HEPES, 150 mM NaCl, 5 mM imidazole, 0.05% Tween-20, 10% glycerol, pH 7.5; equilibrium fit ('Evaluate EC50', TraceDrawer); three independent repeats on different chips

Substance: SNAP-SHP2-nSH2 (domain or fragment)
- Kd [1]: 140 nM
- Kd [2]: 380 nM

Substance: SNAP-SHP2-cSH2 (from UniProt Q06124 1-593) (domain or fragment)
- Kd [3]: 1900 nM and 770 nM and 1400 nM
- Kd [5]: 83 nM and 77 nM and 130 nM

Substance: SNAP-SHP1-nSH2 (domain or fragment)
- Kd [6]: 64 nM

Substance: SNAP-SHP1-nSH2 (from UniProt P29350 1-595) (domain or fragment)
- Kd [3]: 200 nM and 210 nM and 400 nM
- Kd [4]: 50 nM and 73 nM and 68 nM
- Kd [5]: 72 nM and 110 nM and 88.3 nM

Results, then the substance that gave them:

- Kd [3]: 270 nM and 420 nM and 460 nM
- Kd [4]: 430 nM and 270 nM
- Kd [5]: 120 nM and 110 nM and 200 nM
Substance: SNAP-SHP2-nSH2 (from UniProt Q06124 1-593) (domain or fragment)

- Kd [1]: 100 nM
- Kd [2]: 1400 nM
Substance: SNAP-SHP2-cSH2 (domain or fragment)

- Kd [4]: 2000 nM and 1600 nM
- Kd [7]: 760 nM and 1200 nM and 610 nM
- Kd [5]: 1100 nM and 660 nM and 3200 nM
Substance: SNAP-SHP1-cSH2 (from UniProt P29350 1-595) (domain or fragment)
